Laboratory results taken from patent publication US6054572.

Target: human fibronectin purified from a human plasma fraction on Gelatin Sepharose (human) (UniProt P02751)

“D1-D4 (709-886) polypeptide of the fibronectin binding protein of Staphylococcus aureus J2385, expressed from pBROC 520 in E. coli BL21 (DE3)” gave a % Adherence Inhibition of S. aureus 8325.4 to fibronectin-coated PMMA coverslips (at 100 µg/ml D1-D4 (709-886)) of 97.5% and a % Adherence Inhibition of S. aureus J2385 to fibronectin-coated PMMA coverslips (at 100 µg/ml D1-D4 (709-886)) of 78.4%.
